# Measurements: patent US20090226525
# Columns and labels:
# Assay in all cases: EMSA
# [1] = biological target: HBV core protein K11 mutant (truncated core, C-terminal 11-lysine tail, E77C) (Hepatitis B virus) (UniProt P03149); conditions: phosphate (P) at end of the sequence; 20 mM NaHCO3 pH 9.5, room temperature, agarose gel
# [2] = biological target: HBV core protein K7 mutant (truncated core, C-terminal 7-lysine tail, E77C) (Hepatitis B virus) (UniProt P03149); conditions: phosphate (P) at end of the sequence; 20 mM NaHCO3 pH 9.5, room temperature, agarose gel
# [3] = biological target: HBV core protein K9 mutant (truncated core, C-terminal 9-lysine tail, E77C) (Hepatitis B virus) (UniProt P03149); conditions: phosphate (P) at end of the sequence; 20 mM Tris pH 7.7 (p269 states 10 mM Tris), room temperature, agarose gel
sequence,measurement,setting,value
GGAAAGACUGUUCCAAAAAUUUUCCUUUCUGACAAGGUUUUU / AAAAACCUUGUCAGAAAGGAAAAUUUUUGGAACAGUCUUUCC [siGLO Cyclophilin B siRNA],Kd,[1],69 nM
same,Kd,[2],370 nM
same,Kd,[3],115 nM
